In patent publication US20030017619A1 one finds difference in the absorption between the added group and the blank solution data, which are given here for six molecules.

A value given as a limit tells only on which side of the number the result lay.

This assay concerns the target IgG class antibody in the serum of a patient with IgA nephropathy which showed positive in example 1. Nature of the assay: inhibition ELISA: serum pre-incubated with 1 µg/ml peptide solution (1:1), then added to immobilized hinge peptide-BSA; anti-human IgG, absorbancy at 490 nm.
PTPSP [synthetic peptide Pro Thr Pro Ser Pro]: the difference in the absorption between the added group and the blank solution was over 10%. Under PSTPP [synthetic peptide Pro Ser Thr Pro Pro] stands over 10%; under PVPST [synthetic peptide Pro Val Pro Ser Thr], over 10%; under TPPTP [synthetic peptide Thr Pro Pro Thr Pro], over 10%. Take PSPSC [synthetic peptide Pro Ser Pro Ser Cys]: the difference in the absorption between the added group and the blank solution was over 10%. Turning to PSPST [synthetic peptide Pro Ser Pro Ser Thr], the difference in the absorption between the added group and the blank solution was over 10%.
